According to patent publication US20250355001A1, “METHOD FOR DETECTING A TAU PROTEIN FRAGMENT IN A SAMPLE” (GTINVENT LIMITED, priority 2022, published 2025):
Numbering of substitutions follows the chain as printed.

B1: E2B7: dGAE (391E) specific clone, Table 9; SEQ ID NO: 254 (protein)
scFv: QVQLQESGPSLVKPSQTLSLTCTVSGFSLTSWGVAWVRQAPGKALEWLGTMRSGGGTEYNPALKSRLSITRDTSKSQVSLSLSSVTTEDMAMYYCARGYLSGIHYAWGRGLLVSVSSEGKSSGASGESKVDDQAVLTQLSSVSGSLGQRVSITCSGSSSNVGDGDYVGWFQQLPGSAPKLLIYSARNRASGVPDRFSGSRSGNTATLTITSLQAEDEADYYCASIDTSRSHIFGSGTRLTVLG
modifications: E2B7 amino acid sequence
B2: E2A6: dGAE (391E) specific clone, Table 9; SEQ ID NO: 252 (protein)
scFv: QVQLQESGPSLVKPSQTLSLTCTVSGFSLTDWGVAWVRQAPGKALEWLGTMRSGGTTDDNPALKSRLSITRDTSKSQVSLSLSSVTTEDMAMYYCARGYLSGVHYAWGRGLLVTVSSEGKSSGASGESKVDDRVVRTQPSSVSKSLGQSVSITCSGSSSNVGAGNYVGWFQQVPGSAPKLLIYGATNRASGVPARFSGSKSGVTATLTITSLQAEDEADYYCASIDTSRSHIFGSGTRLTVLG
modifications: E2A6 amino acid sequence
B3: ME12: sheep-derived anti-tau clone, CDRs in Table 1 (protein)
CDR 1: SNAVG
CDR 2: GCSSDGKCYHNSALKS
CDR 3: GFYSIYGYDYSGTIDY
CDR 4: SGSSSNVGGGNSVG
CDR 5: NTNSRPS
CDR 6: VTGDSSTHDDL
modifications: VHCDR1 ME12, NS3D9; VHCDR1 S1D2, S1H6, S2C3; VHCDR1 MC5, MD12; VHCDR1 3aA6, VHCDR1 CE3; VHCDR2 ME12; VHCDR3 ME12; VLCDR1 S1D12, ME12; VLCDR2 ME12; VLCDR3 ME12
B4: S1D9: anti-tau clone, Table 2; SEQ ID NO: 413 (protein)
scFv: QVQLQESGPSLVKPSQTLSLTCTVSGFSLTSNSVGWVRQAPGKAPEWVAGIDSDGEEGYNPALNSRLSITRDTSKNQVSLSLSRVTSEDTAVYYCGRTYRTDGYAYGYVQAIDYWGPGLLVTVSSEGKSSGASGESKVDDRVMLTQPPSVSGSPGQTVSITCSGSFIGISSVGWFQQLPGSGLRTVIFASDGRPSGVPDRFSNSKSGNTATLTISSLQAEDEADYFCGSSDRTQYTGVFGSGTRLTVLS
modifications: S1D9 amino acid sequence
B5: S2C6: anti-tau clone, Table 2; SEQ ID NO: 416 (protein)
scFv: QVQLQESGPSLVKPSQTLSLTCTVSGFSLISNSVGWVRQAPGKAPEWVAGIDTDGEEGYNPALKSQYAASDPDTSKSQVSLSLSSVTSEDTAVYYCGRTYRTDGFAYGYVQAIDYWGPGLLLTISSEGKSSGASGESKVDDQAVLTQPSSVSGSLGQRVSITCSGSFIGISSVGWFQQLPGSGLRTIIVASDGRPSGVPDRFSMSKSGNTATLTISSLQAEDEADYFCGSSDRTQYTGVFGSGTRLTVLG
modifications: S2C6 amino acid sequence
B6: S1F4: anti-tau clone, Table 2; SEQ ID NO: 414 (protein)
scFv: QVQLQESGPSLVKPSQTLSLTCTVSGFSLSSNSVGWVRQAPGKAPEWVAGIDTDGEEGYNPALNSRLSITRDTSKSQVSLSLSSVTSEDTAVYYCVRSYRADGLAYGYVQAIDYWGPGLLLTISSEGKSSGASGESKVDDQAVVTQPSSVSGSLGQRVSITCSGSFIGISSVGWFQQLPGSGLRTVIVASDGRPSGVPDRFSNSKSGNTATLTISSLQAEDEADYFCGSSDRTQYTGVFGSGTRLTVLG
modifications: S1F4 amino acid sequence
B7: S1B1: anti-tau clone, Table 2; SEQ ID NO: 412 (protein)
scFv: B6 scFv with A101T, L121V, I123V, V144L
modifications: S1B1 amino acid sequence
B8: NS1G7: anti-tau clone, Table 10; SEQ ID NO: 374 (protein)
scFv: QVQLQESGPSLVKPSQTLSLTCTVSGFSLTSYGVGWVRQAPGKTLEWISSISSGGTTFYNPALKSRLSITRDTSESQVSLSLSSVTTEDTAVYYCTRDVHIYYNDYGAAYGDRDYWGPGLLVTVSSEGKSSGASGESKVDDQAVVTQPPSVSGSPGQRVSITCSGSSSNIGGGNYVSWYQQLPGSGLRTLIYGTTSRASGVPDRFSGSGSGNTATLTISSLQAEDEADYYCASYDTNSGSVFGSGTRLTVLG
modifications: NS1G7 amino acid sequence
B9: CA7: anti-tau clone, Table 10; VH SEQ ID NO: 503, VL 504 (antibody, V domains shown)
VH: RVRLQGSGPSLVKPSQTLSLTCTVSGFSFDSYYVGWVRQAPGKALEWLGNIYSTGRAFYNPALKSRLSITRDTSKSQVSLSVSSVTIEDTALYYCVRGSYYHGGGNGMVDFFDYWSPGLLVTVSS
VL: QVVRTQPSSVSGSLGQRVSITCSGSSSNVGYGNYVGWFQQVPGSAPKLLIYAATSRASGVPDRFSGSRSGNTATLTIDSLQAEDEADYYCSSYQRGNTGVFGSGTRLTVLG
modifications: CA7 VH Domain; CA7 VL Domain
B10: 412E10: C-terminal anti-tau clone, Table 5; SEQ ID NO: 147 (protein)
chain: QVQLQESGPSLVKPSQTLSLTCTVSGFSVISDSVAWVRQAPGKVPEWLGASGSSGNKYYNPALKSRLSITRDTSKSQVSLSLSSVTTEDTAVYYCARGIIAGVDVWGRGLLVTVSSEGKSSGASGESKVDDQAVLTQPSSVSGSLGQRVSITCSGSSSNVGYGNYVGWYQQVPGSAPKLLIYGTAIRASGVPDRFSGSRSGDTATLTITSLQAEDEADYYCASYQSNYAFFGSGTRLTVLG
modifications: 412E10 amino acid sequence
B11: 412B9: C-terminal anti-tau clone, Table 5; SEQ ID NO: 417 (protein)
chain: QVQLQESGPSLVKPSQTLSLTCTVSGFSVISDSVAWVRQAPGKVPEWLGASGSSGNKYYNPALKSRLSITRDTSKSQVSLSLSSVTTEDTAVYYCARGIIAGVDVWGRGLLVSVSSEGKSSGASGESKVDDQAVLTQPSSVSGALGQRVSITCSGSSSNVGYGDYVGWYQQVPGSAPKLLIYGAASRASGVPDRFSGSRSGNTATLTISSLQAEDEADYYCASYDSSDGGVFGSGTRLTVLG
modifications: 412B9 amino acid sequence
B12: 412E6: C-terminal anti-tau clone, Table 5; sequence in b349 (protein)
scAb: QVQLQESGPSLVKPSETLSLTCTVSGFSLTNYGVGWVRQAPGKALEWLGNIYSGGSTYYNPALKSRLSITRDTSKSQVSLSLNSVTLEDTAVYYCGRGGVGSVDVWGPGLLVTVSSEGKSSGASGESKVDDQAVLTQPPSVSGSPGQRVSITCSGGRNNIGRGTFVDWYQQLPGSGLKTVIYGTDRRPPGVPDRFSGSKTGNAATLTITSLQAEDEADYWCATYDYSNDMIILGSGTRLTVLG
B13: 412G11: C-terminal anti-tau clone, Table 5; SEQ ID NO: 434 (protein)
chain: QVRLQESGPSLVKPSQTLSLTCTVSGFSLTSYALGWVRQAPGRAPEWIGNIWRGGRIEYNPALKSRLSITRDTSKSQVSLSLSSVTTEDTAVYYCSRSGGDWGPGLLVTVSSEGKSSGASGESKVDDQAVLTQPSSVSGSLGQRVSITCSGSSSNVGYGNYVGWYQQVPGSAPKLLIYGATSRASGVPDRFSGSRSENTATLTISSLQAEDEADYYCASYDRSESVVFGSGTRLTVLG
modifications: 412G11 amino acid sequence

test system: hT40, dGA, dGAE and truncated tau fragments; assay: Binding ELISA / epitope mapping of anti-tau scAbs with truncated tau proteins and 13mer peptides; parameters: species or system human; settings: ELISA, 'E' group scAbs
Protocol: A series of binding ELISA was performed using various truncated versions of the tau protein and 13mer peptide libraries spanning the entire hT40 molecule for mapping the epitopes of anti-tau scAbs (Full list of protein antigens used is given in Table 14). In general, ELISA plates were coated with 1 μg/ml hT40 or dGA or dGAE or other truncated versions of the protein and in the case of biotinylated peptides, plates were coated with 5 μg/ml Streptavidin followed by 1 μg/ml biotinylated peptide. The plates were blocked with 2% MPBS and scAb samples added at desired starting concentrations and double diluted across the plate. Binding was detected using anti-Human C Kappa HRP conjugated secondary antibody and the resulting immunoreaction was developed and absorbance values measured as described above.
Selected E specific scAbs and their specific binding to dGAE is shown below (FIG. 8A-E).
Similarly, dGA binding ‘NS’, ‘S’ and ‘M’ group scAbs were subjected to further antigen binding ELISA using shorter tau proteins and biotinylated 13mer peptides as shown below (FIG. 10A-F) and (FIG. 11A-R).

| Molecule | cross-reactivity using hT40, dGA and dGAE antigens |
| --- | --- |
| B1 | specific dGAE binding |

same assay, conditions: Table 15; binding ELISA; residue numbers of hT40

| Molecule | Tau proteins/fragments with positive scAb reactivity |
| --- | --- |
| B1 | 297-391 (dGAE) |
| B2 | 297-391 (dGAE) |

same assay, conditions: Table 16; NS, S and M clones; binding ELISA

| Molecule | Tau proteins/fragments with positive scAb reactivity |
| --- | --- |
| B3 | hT40, 297-390 (dGA), 297-391 (dGAE), 341-353, 337-349, 339-351 |
| B4 | hT40, 297-390 (dGA), 297-391 (dGAE) |
| B5 | hT40, 297-390 (dGA), 297-391 (dGAE), 369-390, 369-391 |
| B6 | hT40, 297-390 (dGA), 297-391 (dGAE), 369-390, 369-391 |
| B7 | hT40, 297-390 (dGA), 297-391 (dGAE) |
| B8 | hT40, 297-390 (dGA), 297-391 (dGAE), 275-305, 337-368 |

same assay, conditions: Table 16; NS, S and M clones; incl. 13mer peptides

| Molecule | Shortest region bound on hT40 |
| --- | --- |
| B3 | 337-355 |
| B4 | 367-379 |
| B5 | 367-379 |
| B6 | 367-379 |
| B7 | 367-379 |

same assay, conditions: Table 17; 'C' group scAbs; binding ELISA

| Molecule | Tau proteins/fragments with positive scAb reactivity |
| --- | --- |
| B9 | hT40, 1-319 |

same assay, conditions: Table 17; 'C' group scAbs; incl. 13mer peptides

| Molecule | Shortest region bound on hT40 |
| --- | --- |
| B9 | 1-319 |

same assay, conditions: Table 28 (LoD table); residues of hT40

| Molecule | Detection scAb (Epitope) |
| --- | --- |
| B10 | 412E10 (412-441) |

same assay, conditions: residue numbers of SEQ ID NO: 1 (hT40); CDR Tables 1-11

| Molecule | Epitope |
| --- | --- |
| B11 | 412-441 |
| B3 | 337-355 |
| B4 | 367-379 |
| B5 | 367-379 |
| B10 | 412-441 |
| B6 | 367-379 |
| B7 | 367-379 |
| B9 | 1-319 |
| B12 | 412-441 |
| B13 | 412-441 |
